Reference: IntAct's records for PubMed 19118384

B1: FAS-associated death domain protein (Homo sapiens), Q13158 (parent)
chain: MDPFLVLLHSVSSSLSSSELTELKFLCLGRVGKRKLERVQSGLDLFSMLLEQNDLEPGHTELLRELLASLRRHDLLRRVDDFEAGAAAGAAPGEEDLCAAFNVICDNVGKDWRRLARQLKVSDTKIDSIEDRYPRNLTERVRESLRIWKNTEKENATVAHLVGALRSCQMNLVADLVQEVQQARDLQNRSGAMSPMSWNSDASTSEAS

Variants of: B1
Details: with FAS

| Variant | effect of a mutation on the interaction |
| --- | --- |
| L172E | decreasing interaction |
